According to patent EP4748860A1 (Kanglitai Biomedical (Qingdao) Co., Ltd., dated 2026):

B1: HER2-11-hFc (Fc fusion)
chain: QVQLQESGGGLVQAGGSLRLSCAASGHTVSRNMMGWFRQAPGKEREFVSAIAWNGEDTYYAESVEGRFTISKDNVKNTIYLQMNSLKPEDTAVYYCAASLFRLWNSATAGNNRVYHYWGQGTQVTVSS
notes: VHH gene cloned into pABG1-Fc (human Fc fragment), expressed in FreeStyle 293-F cells, Protein A purified; also called HER2-11-Fc; not shown: human Fc fragment of vector pABG1-Fc
B2: HER2-10-hFc (Fc fusion)
chain: QVQLQESGGGLVQPGGSLRLSCTAARNIFGRNVMGWFRQAPGKQREFVAHITGGSAVIYATSVKGRFTISRDNAKNTVYLQMNNLTLDDTAVYFCRAVNDDLWGQGTQVTVSS
notes: VHH gene cloned into pABG1-Fc (human Fc fragment), expressed in FreeStyle 293-F cells, Protein A purified; also called HER2-10-Fc; not shown: human Fc fragment of vector pABG1-Fc
B3: HER2-3-hFc (Fc fusion)
chain: QVQLQESGGGLVQAGDSLRLSCAASGLTFSTVGMGWFRQVLGMEREPVAGISWTGNVIGYAESVTGRFTISRDSAKNTVYLQMNSLKPEDTAVYYCAARRRGMSSYDYWGQGTQVTVSS
notes: VHH gene cloned into pABG1-Fc (human Fc fragment), expressed in FreeStyle 293-F cells, Protein A purified; also called HER2-3-Fc; not shown: human Fc fragment of vector pABG1-Fc
B4: HER2-8-hFc (Fc fusion)
chain: QVQLQESGGGLVQAGGSLRLSCAASGRTFSGAGVGWFRQDPEKEREFVAAIAWSGGSTRYADSVKGRFTISRDNTENTVFLQMNNLRPEDTAVYYCAATRRFYSGLTYTQRDVYDNWGQGTQVTVSS
notes: VHH gene cloned into pABG1-Fc (human Fc fragment), expressed in FreeStyle 293-F cells, Protein A purified; also called HER2-8-Fc; not shown: human Fc fragment of vector pABG1-Fc

Molecular target: BSA (UniProt P02769 25-607)
Assay: ELISA, antigen coated at 200 ng per well

BSA, sequence (P02769 25-607 limits assumed): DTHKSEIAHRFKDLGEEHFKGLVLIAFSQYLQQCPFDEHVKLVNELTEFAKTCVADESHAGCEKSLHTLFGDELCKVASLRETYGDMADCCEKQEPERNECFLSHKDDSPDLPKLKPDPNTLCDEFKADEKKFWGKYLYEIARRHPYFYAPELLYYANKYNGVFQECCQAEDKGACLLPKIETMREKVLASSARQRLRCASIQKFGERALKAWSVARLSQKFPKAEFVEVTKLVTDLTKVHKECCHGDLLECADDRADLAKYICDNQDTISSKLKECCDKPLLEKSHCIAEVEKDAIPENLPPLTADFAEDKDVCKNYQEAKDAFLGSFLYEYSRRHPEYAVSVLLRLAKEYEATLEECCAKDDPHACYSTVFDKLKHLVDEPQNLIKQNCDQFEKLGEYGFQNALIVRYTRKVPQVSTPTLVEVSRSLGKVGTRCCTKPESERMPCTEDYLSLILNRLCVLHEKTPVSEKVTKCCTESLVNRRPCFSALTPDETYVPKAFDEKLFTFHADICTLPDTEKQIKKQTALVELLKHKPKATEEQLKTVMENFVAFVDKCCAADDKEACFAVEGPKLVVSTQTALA

Binding result, no binding (tested: 0.2 µg per well):
B1
B2
B3
B4
